The source of these data is US9320812.

The target of experiment [1] is T1, human ephrin-A4 (human, UniProt P52798).
T1 chain: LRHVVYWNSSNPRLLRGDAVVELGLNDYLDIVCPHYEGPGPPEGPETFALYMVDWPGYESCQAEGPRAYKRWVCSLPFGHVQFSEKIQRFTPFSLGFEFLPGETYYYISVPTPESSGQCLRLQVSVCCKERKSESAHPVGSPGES
As to the kind of experiment: SPR. For orientation: Surface plasmon resonance follows binding to a sensor surface in real time, without labels.

Experiment [2] concerns the target T1, human ephrin-A4. As to the kind of experiment: FACS. Background: A flow cytometer gives signals particle by particle.

B1: SC4.47 (antibody, V domains shown)
VH: EVQLQQSGPELVKPGASVKISCTASGYTFTYFYMNWVKQSQGKSLEWVGQINPNNGGTAYNHKFRGKTTLTVDKSSNTAFMELRSLTSEDSAVYFCARWVGTHYFDYWGQGTTLTVSS
VL: DIVLTQSPASLPVSLGQRATISCRASQSVSSSSYTYIHWYQQKPGQPPKLLINFASNLESGVPARFSVSGSGTDFTLNIHPVEGEDTATYYCQHSWEIPPTFGGGTKLEIK
For the molecule B1, the Kd (as a rule, the equilibrium constant for the complex coming apart) with human ephrin-A4 [1] was determined as 1.1 nM.

B2: EphB4-Fc (protein)
chain: LEETLLNTKLETADLKWVTFPQVDGQWEELSGLDEEQHSVRTYEVCDVQRAPGQAHWLRTGWVPRRGAVHVYATLRFTMLECLSLPRAGRSCKETFTVFYYESDADTATALTPAWMENPYIKVDTVAAEHLTRKRPGAEATGKVNVKTLRLGPLSKAGFYLAFQDQGACMALLSLHLFYKKCAQLTVNLTRFPETVPRELVVPVAGSCVVDAVPAPGPSPSLYCREDGQWAEQPVTGCSCAPGFEAAEGNTKCRACAQGTFKPLSGEGSCQPCPANSHSNTIGSAVCQCRVGYFRARTDPRGAPCTTPPSAPRSVVSRLNGSSLHLEWSAPLESGGREDLTYALRCRECRPGGSCAPCGGDLTFDPGPRDLVEPWVVVRGLRPDFTYTFEVTALNGVSSLATGPVPFEPVNVTTDREVPPAVSDIRVTRSSPSSLSLAWAVPRAPSGAVLDYEVKYHEKGAEGPSSVRFLKTSENRAELRGLKRGASYLVQVRARSEAGYGPFGQEHHSQTQLDESEGWREQLA
On to B2, for which the binding result with human ephrin-A4 [2] was “no binding”.
